B1: Cytohesin-4 (Homo sapiens), Q9UIA0 (parent)
chain: MDLCHPEPAELSSGETEELQRIKWHRKQLLEDIQKLKDEIADVFAQIDCFESAEESRMAQKEKELCIGRKKFNMDPAKGIQYFIEHKLLTPDVQDIARFLYKGEGLNKTAIGTYLGERDPINLQVLQAFVDCHEFANLNLVQALRQFLWSFRLPGEAQKIDRMMEAFATRYCLCNPGVFQSTDTCYVLSFSIIMLNTSLHNPNVRDRPPFERFVSMNRGINNGSDLPEDQLRNLFDSIKSEPFSIPEDDGNDLTHTFFNPDREGWLLKLGGRVKTWKRRWFILTDNCLYYFEFTTDKEPRGIIPLENLSVQKVDDPKKPFCLELYNPSCRGQKIKACKTDGDGRVVEGKHESYRISATSAEERDQWIESIRASITRVPFYDLVSTRKKKIASKQ
partner: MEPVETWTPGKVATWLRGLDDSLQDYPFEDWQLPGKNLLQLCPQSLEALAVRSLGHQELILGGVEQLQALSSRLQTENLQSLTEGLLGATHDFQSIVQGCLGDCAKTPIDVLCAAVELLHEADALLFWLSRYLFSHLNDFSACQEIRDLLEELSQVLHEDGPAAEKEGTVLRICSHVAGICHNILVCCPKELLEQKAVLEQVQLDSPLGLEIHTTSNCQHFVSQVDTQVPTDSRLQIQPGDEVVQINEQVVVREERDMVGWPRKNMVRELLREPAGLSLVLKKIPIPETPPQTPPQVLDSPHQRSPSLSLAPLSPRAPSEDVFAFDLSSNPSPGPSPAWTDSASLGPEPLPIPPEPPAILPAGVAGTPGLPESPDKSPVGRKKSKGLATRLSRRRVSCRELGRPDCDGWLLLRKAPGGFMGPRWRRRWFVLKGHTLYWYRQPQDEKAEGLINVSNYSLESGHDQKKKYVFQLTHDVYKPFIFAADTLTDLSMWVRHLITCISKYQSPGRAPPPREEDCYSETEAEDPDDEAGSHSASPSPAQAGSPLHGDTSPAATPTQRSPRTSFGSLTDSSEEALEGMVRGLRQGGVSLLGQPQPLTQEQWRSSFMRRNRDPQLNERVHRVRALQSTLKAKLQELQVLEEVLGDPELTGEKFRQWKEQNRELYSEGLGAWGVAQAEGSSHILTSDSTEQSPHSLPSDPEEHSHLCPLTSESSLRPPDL
B2: Ceramide transfer protein (Homo sapiens), Q9Y5P4 (parent)
chain: MSDNQSWNSSGSEEDPETESGPPVERCGVLSKWTNYIHGWQDRWVVLKNNALSYYKSEDETEYGCRGSICLSKAVITPHDFDECRFDISVNDSVWYLRAQDPDHRQQWIDAIEQHKTESGYGSESSLRRHGSMVSLVSGASGYSATSTSSFKKGHSLREKLAEMETFRDILCRQVDTLQKYFDACADAVSKDELQRDKVVEDDEDDFPTTRSDGDFLHSTNGNKEKLFPHVTPKGINGIDFKGEAITFKATTAGILATLSHCIELMVKREDSWQKRLDKETEKKRRTEEAYKNAMTELKKKSHFGGPDYEEGPNSLINEEEFFDAVEAALDRQDKIEEQSQSEKVRLHWPTSLPSGDAFSSVGTHRFVQKPYSRSSSMSSIDLVSASDDVHRFSSQVEEMVQNHMTYSLQDVGGDANWQLVVEEGEMKVYRREVEENGIVLDPLKATHAVKGVTGHEVCNYFWNVDVRNDWETTIENFHVVETLADNAIIIYQTHKRVWPASQRDVLYLSVIRKIPALTENDPETWIVCNFSVDHDSAPLNNRCVRAKINVAMICQTLVSPPEGNQEISRDNILCKITYVANVNPGGWAPASVLRAVAKREYPKFLKRFTSYVQEKTAGKPILF
B3: Pre-B-cell leukemia transcription factor 4 (Homo sapiens), Q9BYU1 (parent)
chain: MAAPPRPAPSPPAPRRLDTSDVLQQIMAITDQSLDEAQARKHALNCHRMKPALFSVLCEIKEKTVVSIRGIQDEDPPDAQLLRLDNMLLAEGVCRPEKRGRGGAVARAGTATPGGCPNDNSIEHSDYRAKLSQIRQIYHSELEKYEQACREFTTHVTNLLQEQSRMRPVSPKEIERMVGAIHGKFSAIQMQLKQSTCEAVMTLRSRLLDARRKRRNFSKQATEVLNEYFYSHLNNPYPSEEAKEELARKGGLTISQVSNWFGNKRIRYKKNMGKFQEEATIYTGKTAVDTTEVGVPGNHASCLSTPSSGSSGPFPLPSAGDAFLTLRTLASLQPPPGGGCLQSQAQGSWQGATPQPATASPAGDPGSINSSTSN
B4: Protein BANP (Homo sapiens), Q8N9N5-2 (parent)
chain: MMSEHDLADVVQIAVEDLSPDHPVVLENHVVTDEDEPALKRQRLEINCQDPSIKSFLYSINQTICLRLDSIEAKLQALEATCKSLEEKLDLVTNKQHSPIQVPMVAGSPLGATQTCNKVRCAVPGRRQNTIVVKVPGQEDSHHEDGESGSEASDSVSSCGQAGSQSIGSNVTLITLNSEEDYPNGTWLGDENNPEMRVRCAIIPSDMLHISTNCRTAEKMALTLLDYLFHREVQAVSNLSGQGKHGKKQLDPLTIYGIRCHLFYKFGITESDWYRIKQSIDSKCRTAWRRKQRGQSLAVKSFSRRTPNSSSYCPSEPMMSTPPPASELPQPQPQPQALHYALANAQQVQIHQIGEDGQVQVIPQGHLHIAQVPQGEQVQITQDSEGNLQIHHVGQDGQVLQGAQLIAVASSDPAAAGVDGSPLQGSDIQVQYVQLAPVSDHTAGAQTAEALQPTLQPEMQLEHGAIQIQ
partner: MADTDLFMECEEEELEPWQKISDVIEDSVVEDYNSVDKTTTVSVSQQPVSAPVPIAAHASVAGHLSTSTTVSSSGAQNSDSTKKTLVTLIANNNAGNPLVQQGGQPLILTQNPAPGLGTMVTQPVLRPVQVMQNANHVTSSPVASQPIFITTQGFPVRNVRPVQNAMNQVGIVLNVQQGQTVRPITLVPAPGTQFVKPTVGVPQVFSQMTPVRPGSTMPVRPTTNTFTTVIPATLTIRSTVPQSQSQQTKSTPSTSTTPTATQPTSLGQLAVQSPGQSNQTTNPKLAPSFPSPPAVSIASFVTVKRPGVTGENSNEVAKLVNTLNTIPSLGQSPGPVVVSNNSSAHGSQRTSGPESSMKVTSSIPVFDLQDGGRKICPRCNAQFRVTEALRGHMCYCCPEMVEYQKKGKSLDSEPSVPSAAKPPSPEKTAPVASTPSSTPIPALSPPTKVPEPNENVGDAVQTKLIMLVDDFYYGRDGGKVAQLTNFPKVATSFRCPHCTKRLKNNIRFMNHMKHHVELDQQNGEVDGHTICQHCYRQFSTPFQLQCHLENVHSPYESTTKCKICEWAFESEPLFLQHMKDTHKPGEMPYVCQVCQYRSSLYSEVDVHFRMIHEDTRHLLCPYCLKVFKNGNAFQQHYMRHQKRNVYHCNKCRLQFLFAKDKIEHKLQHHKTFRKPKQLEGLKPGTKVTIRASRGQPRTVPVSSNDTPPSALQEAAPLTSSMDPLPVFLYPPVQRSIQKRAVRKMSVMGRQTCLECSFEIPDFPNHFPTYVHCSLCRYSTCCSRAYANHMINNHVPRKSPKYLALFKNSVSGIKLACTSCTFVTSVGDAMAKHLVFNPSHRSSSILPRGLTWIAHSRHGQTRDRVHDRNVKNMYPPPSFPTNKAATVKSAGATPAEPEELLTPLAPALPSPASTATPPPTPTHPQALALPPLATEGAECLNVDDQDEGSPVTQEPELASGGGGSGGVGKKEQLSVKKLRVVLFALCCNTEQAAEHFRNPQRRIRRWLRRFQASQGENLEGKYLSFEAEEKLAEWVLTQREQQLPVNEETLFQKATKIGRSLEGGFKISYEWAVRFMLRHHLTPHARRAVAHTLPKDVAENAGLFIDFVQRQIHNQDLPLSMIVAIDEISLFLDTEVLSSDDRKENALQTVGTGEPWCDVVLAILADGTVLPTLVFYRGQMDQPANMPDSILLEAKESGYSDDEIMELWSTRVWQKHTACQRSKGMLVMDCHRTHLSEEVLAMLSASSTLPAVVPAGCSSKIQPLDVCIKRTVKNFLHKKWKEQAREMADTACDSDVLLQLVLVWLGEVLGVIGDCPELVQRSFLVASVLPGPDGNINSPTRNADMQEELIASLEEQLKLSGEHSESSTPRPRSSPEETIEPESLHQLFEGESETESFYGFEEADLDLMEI

One test covers variants of B1. The conditions noted are these: with cnkr1_human CNKSR1, Q969H4.
With MDLCHPEPAELSSGETEELQRIKWHRKQLLEDIQKLKDEIADVFAQIDCFESAEESRMAQKEKELCIGRKKFNVDPAKGIQYFIEHKLLTPDVQDIARFLYKGEGLNKTAIGTYLGERDPINLQVLQAFVDCHEFANLNLVQALRQFLWSFRLPGEAQKIDRMMEAFATRYCLCNPGVFQSTDTCYVLSFSIIMLNTSLHNPNVRDRPPFERFVSMNRGINNGSDLPEDQLRNLFDSIKSEPFSIPEDDGNDLTHTFFNPDREGWLLKLGGRVKTWKRRWFILTDNCLYYFEFTTDKEPRGIIPLENLSVQKVDDPKKPFCLELYNPSCRGQKIKACKTDGDGRVVEGKHESYRISATSAEERDQWIESIRASITRVPFYDLVSTRKKKIASKQ [M74V], the “effect of a mutation on the interaction” value was “with no effect”. Still for that read-out and setting: as for MDLCHPEPTELSSGETEELQRIKWHRKQLLEDIQKLKDEIADVFAQIDCFESAEESRMAQKEKELCIGRKKFNMDPAKGIQYFIEHKLLTPDVQDIARFLYKGEGLNKTAIGTYLGERDPINLQVLQAFVDCHEFANLNLVQALRQFLWSFRLPGEAQKIDRMMEAFATRYCLCNPGVFQSTDTCYVLSFSIIMLNTSLHNPNVRDRPPFERFVSMNRGINNGSDLPEDQLRNLFDSIKSEPFSIPEDDGNDLTHTFFNPDREGWLLKLGGRVKTWKRRWFILTDNCLYYFEFTTDKEPRGIIPLENLSVQKVDDPKKPFCLELYNPSCRGQKIKACKTDGDGRVVEGKHESYRISATSAEERDQWIESIRASITRVPFYDLVSTRKKKIASKQ [A9T], the entry is “with no effect”.

Another test covers variants of B2. To be noted: with rtn4_human RTN4, Q9NQC3.
rtn4_human RTN4, Q9NQC3, sequence (Q9NQC3 whole entry): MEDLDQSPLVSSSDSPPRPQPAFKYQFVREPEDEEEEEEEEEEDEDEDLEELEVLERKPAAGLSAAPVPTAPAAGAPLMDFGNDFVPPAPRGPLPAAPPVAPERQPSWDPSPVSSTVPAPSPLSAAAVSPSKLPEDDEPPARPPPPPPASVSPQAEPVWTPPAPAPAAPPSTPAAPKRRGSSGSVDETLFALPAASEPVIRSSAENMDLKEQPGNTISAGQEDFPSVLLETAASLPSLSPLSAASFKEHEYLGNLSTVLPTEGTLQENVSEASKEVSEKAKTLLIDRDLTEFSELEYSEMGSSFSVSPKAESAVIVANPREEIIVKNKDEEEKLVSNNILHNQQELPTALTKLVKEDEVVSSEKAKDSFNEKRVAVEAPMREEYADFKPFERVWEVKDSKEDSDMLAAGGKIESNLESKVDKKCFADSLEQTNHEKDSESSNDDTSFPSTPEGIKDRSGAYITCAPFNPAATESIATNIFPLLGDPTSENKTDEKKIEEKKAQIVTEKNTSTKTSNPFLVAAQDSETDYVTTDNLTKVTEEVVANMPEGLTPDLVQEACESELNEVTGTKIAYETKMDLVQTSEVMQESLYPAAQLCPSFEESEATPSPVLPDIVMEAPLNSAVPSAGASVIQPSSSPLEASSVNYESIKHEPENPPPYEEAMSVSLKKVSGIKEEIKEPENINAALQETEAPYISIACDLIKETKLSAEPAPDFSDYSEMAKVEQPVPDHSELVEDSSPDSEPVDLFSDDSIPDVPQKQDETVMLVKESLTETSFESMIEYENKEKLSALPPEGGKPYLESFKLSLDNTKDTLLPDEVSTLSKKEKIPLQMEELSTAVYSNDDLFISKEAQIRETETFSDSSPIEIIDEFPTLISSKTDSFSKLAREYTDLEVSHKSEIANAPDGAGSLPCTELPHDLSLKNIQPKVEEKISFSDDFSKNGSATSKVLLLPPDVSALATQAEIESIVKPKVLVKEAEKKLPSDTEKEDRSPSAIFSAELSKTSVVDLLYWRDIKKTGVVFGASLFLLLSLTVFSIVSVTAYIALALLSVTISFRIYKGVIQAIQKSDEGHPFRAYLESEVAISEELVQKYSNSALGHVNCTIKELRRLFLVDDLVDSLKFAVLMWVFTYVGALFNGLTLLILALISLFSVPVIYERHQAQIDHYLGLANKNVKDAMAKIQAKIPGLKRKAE
As to R128H, the “effect of a mutation on the interaction” value is “with no effect”.

The next test covers variants of B2. To be noted: with rtn3_human RTN3, O95197.
rtn3_human RTN3, O95197, sequence (O95197 whole entry): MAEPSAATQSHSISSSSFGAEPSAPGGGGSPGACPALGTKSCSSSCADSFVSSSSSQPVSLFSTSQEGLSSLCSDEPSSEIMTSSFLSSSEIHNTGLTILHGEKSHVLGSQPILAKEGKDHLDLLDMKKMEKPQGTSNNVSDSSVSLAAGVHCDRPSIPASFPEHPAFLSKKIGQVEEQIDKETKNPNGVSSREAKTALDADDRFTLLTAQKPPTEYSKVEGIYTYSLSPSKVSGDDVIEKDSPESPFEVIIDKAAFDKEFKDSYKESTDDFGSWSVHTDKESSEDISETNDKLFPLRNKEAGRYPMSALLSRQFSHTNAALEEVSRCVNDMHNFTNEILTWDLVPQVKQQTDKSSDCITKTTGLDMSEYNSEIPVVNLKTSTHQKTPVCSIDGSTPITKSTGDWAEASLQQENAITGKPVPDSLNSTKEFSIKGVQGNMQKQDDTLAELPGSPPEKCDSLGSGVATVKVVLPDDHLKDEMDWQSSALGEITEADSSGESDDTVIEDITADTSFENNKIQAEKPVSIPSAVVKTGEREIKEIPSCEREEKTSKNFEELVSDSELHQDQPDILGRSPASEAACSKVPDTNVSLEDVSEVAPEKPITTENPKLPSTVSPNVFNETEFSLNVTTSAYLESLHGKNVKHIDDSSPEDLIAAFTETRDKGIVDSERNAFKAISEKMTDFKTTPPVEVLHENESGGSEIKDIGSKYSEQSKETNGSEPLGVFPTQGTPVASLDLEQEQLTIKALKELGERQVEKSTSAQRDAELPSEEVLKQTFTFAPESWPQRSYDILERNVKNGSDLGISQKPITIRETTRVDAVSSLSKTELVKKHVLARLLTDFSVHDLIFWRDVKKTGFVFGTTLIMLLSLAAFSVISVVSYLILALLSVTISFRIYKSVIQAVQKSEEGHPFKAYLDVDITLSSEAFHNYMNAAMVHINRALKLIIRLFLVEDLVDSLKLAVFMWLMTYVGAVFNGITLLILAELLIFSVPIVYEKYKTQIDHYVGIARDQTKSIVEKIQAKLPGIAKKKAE
Take R128H: the “effect of a mutation on the interaction” value is “with no effect”.

The variants in a further test derive from B2. The conditions noted are these: with ar6p1_human ARL6IP1, Q15041.
ar6p1_human ARL6IP1, Q15041, sequence (Q15041 whole entry): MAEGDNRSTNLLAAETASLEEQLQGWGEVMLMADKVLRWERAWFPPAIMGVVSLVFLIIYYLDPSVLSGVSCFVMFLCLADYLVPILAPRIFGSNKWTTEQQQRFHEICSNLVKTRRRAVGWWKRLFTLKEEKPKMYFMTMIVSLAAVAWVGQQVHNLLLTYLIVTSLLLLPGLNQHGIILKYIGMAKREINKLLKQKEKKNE
For the variant R128H, the “effect of a mutation on the interaction” value is on record as “with no effect”.

Variants of B3 are the subject of the next test. To be noted: with tfp11_human TFIP11, Q9UBB9.
tfp11_human TFIP11, Q9UBB9, sequence (Q9UBB9 whole entry): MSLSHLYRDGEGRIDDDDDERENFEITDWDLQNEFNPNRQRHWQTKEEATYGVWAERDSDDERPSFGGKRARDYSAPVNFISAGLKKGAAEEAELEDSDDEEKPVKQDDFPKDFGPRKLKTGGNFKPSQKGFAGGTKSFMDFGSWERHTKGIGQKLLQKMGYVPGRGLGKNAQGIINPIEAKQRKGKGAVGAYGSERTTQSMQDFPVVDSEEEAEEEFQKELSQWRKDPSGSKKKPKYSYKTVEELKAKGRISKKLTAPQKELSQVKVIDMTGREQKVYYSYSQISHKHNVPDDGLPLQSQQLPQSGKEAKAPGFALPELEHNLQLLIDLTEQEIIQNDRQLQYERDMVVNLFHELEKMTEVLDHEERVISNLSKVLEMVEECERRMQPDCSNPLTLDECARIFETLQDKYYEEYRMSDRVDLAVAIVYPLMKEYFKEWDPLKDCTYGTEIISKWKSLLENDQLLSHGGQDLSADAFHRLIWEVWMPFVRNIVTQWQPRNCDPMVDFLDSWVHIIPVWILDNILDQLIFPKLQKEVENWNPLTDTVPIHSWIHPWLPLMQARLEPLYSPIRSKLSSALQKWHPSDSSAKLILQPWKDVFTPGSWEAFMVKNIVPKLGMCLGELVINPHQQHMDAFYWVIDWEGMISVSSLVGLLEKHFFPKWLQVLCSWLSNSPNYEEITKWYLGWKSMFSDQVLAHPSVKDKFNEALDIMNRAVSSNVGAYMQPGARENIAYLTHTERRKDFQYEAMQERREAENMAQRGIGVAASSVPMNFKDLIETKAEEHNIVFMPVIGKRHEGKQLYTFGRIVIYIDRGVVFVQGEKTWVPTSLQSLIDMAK
In the case of MAAPPRPAPSPPAPRRLDTSDVLQQIMAITDQSLDEAQARKHALNCHRMKPALFSVLCEIKEKTVVSIRGIQDEDPPDAQLLRLDNMLLAEGVCRPEKRGRGGAVARAGTATPGGCPNDNSIEHSDYRAKLSQIRQIYHSELEKYEQACREFTTHVTNLLQEQSRMRPVSPKEIERMVGAIHGKFSAIQMQLKQSTCEAVMTLRSRLLDARRKRRNFSKQATEVLNEYFYSHLNNPYPSEEAKEELARKGGLTISQVSNWFGNKRIRYKKNMGKFQEEATIYMGKTAVDTTEVGVPGNHASCLSTPSSGSSGPFPLPSAGDAFLTLRTLASLQPPPGGGCLQSQAQGSWQGATPQPATASPAGDPGSINSSTSN [T283M], the “effect of a mutation on the interaction” value is “with no effect”.

As to MAAPPRPAPSPPAPRRLDTSDVLQQIMAITDQSLDEAQARKHALNCHRMKPALFSVLCEIKEKTVVSIRGIQDEDPPDAQLLRLDNMLLAEGVCRPEKRGRGGAVARAGTATPGGCPNDNSIEHSDYRAKLSQIRQIYHSELEKYEQACREFTTHVTNLLQEQSRMRPVSPKEIERMVGAIHGKFSAIQMQLKQSTCEAVMTLRSRLLDARRKRRNFSKQATEVLNEYFYSHLNNPYPSEEAKEELARKGGLTISQVSNWFGNKRIRYKKNMGKFQEEATIYTGKTAVDTTEVGVPGNHASCLSTPSSGSSGPFPLPSAGDAFLTLQTLASLQPPPGGGCLQSQAQGSWQGATPQPATASPAGDPGSINSSTSN [R327Q], the “effect of a mutation on the interaction” value is given as “with no effect”.

For MAAPPRPAPSPPAPRRLDTSDVLQQIMAITDQSLDEAQARKHALNCHRMKPALFSVLCEIKEKTVVSIRGIQDEDPPDAQLLRLDNMLLAEGVCRPEKRGRGGAVARAGTATPGGCPNDNSIEHSDYRAKLSQIRQIYHSELEKYEQACREFTMHVTNLLQEQSRMRPVSPKEIERMVGAIHGKFSAIQMQLKQSTCEAVMTLRSRLLDARRKRRNFSKQATEVLNEYFYSHLNNPYPSEEAKEELARKGGLTISQVSNWFGNKRIRYKKNMGKFQEEATIYTGKTAVDTTEVGVPGNHASCLSTPSSGSSGPFPLPSAGDAFLTLRTLASLQPPPGGGCLQSQAQGSWQGATPQPATASPAGDPGSINSSTSN [T154M], the “effect of a mutation on the interaction” value is listed as “with no effect”.

Variants of B4 are the subject of the next test. To be noted: with pogz_human POGZ.
Turning to MMSEHDLADVVQIAVEDLSPDHPVVLENHVVTDEDEPALKRQRLEINCQDPSIKSFLYSINQTICLRLDSIEAKLQALEATCKSLEEKLDLVTNKQHSPIQVPMVAGSPLGATQTCNKVRCAVPGRRQNTIVVKVPGQEDSHHEDGESGSEASDSVSSCGQVGSQSIGSNVTLITLNSEEDYPNGTWLGDENNPEMRVRCAIIPSDMLHISTNCRTAEKMALTLLDYLFHREVQAVSNLSGQGKHGKKQLDPLTIYGIRCHLFYKFGITESDWYRIKQSIDSKCRTAWRRKQRGQSLAVKSFSRRTPNSSSYCPSEPMMSTPPPASELPQPQPQPQALHYALANAQQVQIHQIGEDGQVQVIPQGHLHIAQVPQGEQVQITQDSEGNLQIHHVGQDGQVLQGAQLIAVASSDPAAAGVDGSPLQGSDIQVQYVQLAPVSDHTAGAQTAEALQPTLQPEMQLEHGAIQIQ [A162V], the “effect of a mutation on the interaction” value is “with no effect”.

The values above are taken from IntAct's records for PubMed 31515488.
